Measured values as given in patent US20240425876A1 (CHIGENOVO, published 2024).

Biological target: the molecule itself
Assay: Western blot of transfected HEK293 cells
Experimental: After 48 hours, the cells were lysed. The C-terminal truncated version containing a flag tag in the cells was enriched by using flag antibody (F1804. Sigma)-coupled magnetic beads, and then the presence of the N-terminal truncated version interacting with the C-terminal truncated version was detected by western blot using an HA antibody (AE036, ABclonal).

B1: C-terminal truncated version (aa 1348-2273) of ABCA4 with a Flag tag at its C-terminus (other)
chain: TQLVLQHVQALLVKRFQHTIRSHKDFLAQIVLPATFVFLALMLSIVIPPFGEYPALTLHPWIYGQQYTFFSMDEPGSEQFTVLADVLLNKPGFGNRCLKEGWLPEYPCGNSTPWKTPSVSPNITQLFQKQKWTQVNPSPSCRCSTREKLTMLPECPEGAGGLPPPQRTQRSTEILQDLTDRNISDFLVKTYPALIRSSLKSKFWVNEQRYGGISIGGKLPVVPITGEALVGFLSDLGRIMNVSGGPITREASKEIPDFLKHLETEDNIKVWFNNKGWHALVSFLNVAHNAILRASLPKDRSPEEYGITVISQPLNLTKEQLSEITVLTTSVDAVVAICVIFSMSFVPASFVLYLIQERVNKSKHLQFISGVSPTTYWVTNFLWDIMNYSVSAGLVVGIFIGFQKKAYTSPENLPALVALLLLYGWAVIPMMYPASFLFDVPSTAYVALSCANLFIGINSSAITFILELFENNRTLLRFNAVLRKLLIVFPHFCLGRGLIDLALSQAVTDVYARFGEEHSANPFHWDLIGKNLFAMVVEGVVYFLLTLLVQRHFFLSQWIAEPTKEPIVDEDDDVAEERQRIITGGNKTDILRLHELTKIYPGTSSPAVDRLCVGVRPGECFGLLGVNGAGKTTTFKMLTGDTTVTSGDATVAGKSILTNISEVHQNMGYCPQFDAIDELLTGREHLYLYARLRGVPAEEIEKVANWSIKSLGLTVYADCLAGTYSGGNKRKLSTAIALIGCPPLVLLDEPTTGMDPQARRMLWNVIVSIIREGRAVVLTSHSMEECEALCTRLAIMVKGAFRCMGTIQHLKSKFGDGYIVTMKIKSPKDDLLPDLNPVEQFFQGNFPGSVQRERHYNMLQFQVSSSSLARIFQLLLSHKDSLLIEEYSVTQTTLDQVFVNFAKQQTESHDLPLHPRAAGASRQAQD
notes: Expressed in HEK293 cells; captured on flag antibody-coupled magnetic beads; not shown: Flag tag linked to the C-terminus
B1: binds.

B2: N-terminal truncated version (aa 1-1347) of ABCA4 with an HA tag at its C-terminus (other)
chain: MGFVRQIQLLLWKNWTLRKRQKIRFVVELVWPLSLFLVLIWLRNANPLYSHHECHFPNKAMPSAGMLPWLQGIFCNVNNPCFQSPTPGESPGIVSNYNNSILARVYRDFQELLMNAPESQHLGRIWTELHILSQFMDTLRTHPERIAGRGIRIRDILKDEETLTLFLIKNIGLSDSVVYLLINSQVRPEQFAHGVPDLALKDIACSEALLERFIIFSQRRGAKTVRYALCSLSQGTLQWIEDTLYANVDFFKLFRVLPTLLDSRSQGINLRSWGGILSDMSPRIQEFIHRPSMQDLLWVTRPLMQNGGPETFTKLMGILSDLLCGYPEGGGSRVLSFNWYEDNNYKAFLGIDSTRKDPIYSYDRRTTSFCNALIQSLESNPLTKIAWRAAKPLLMGKILYTPDSPAARRILKNANSTFEELEHVRKLVKAWEEVGPQIWYFFDNSTQMNMIRDTLGNPTVKDFLNRQLGEEGITAEAILNFLYKGPRESQADDMANFDWRDIFNITDRTLRLVNQYLECLVLDKFESYNDETQLTQRALSLLEENMFWAGVVFPDMYPWTSSLPPHVKYKIRMDIDVVEKTNKIKDRYWDSGPRADPVEDFRYIWGGFAYLQDMVEQGITRSQVQAEAPVGIYLQQMPYPCFVDDSFMIILNRCFPIFMVLAWIYSVSMTVKSIVLEKELRLKETLKNQGVSNAVIWCTWFLDSFSIMSMSIFLLTIFIMHGRILHYSDPFILFLFLLAFSTATIMLCFLLSTFFSKASLAAACSGVIYFTLYLPHILCFAWQDRMTAELKKAVSLLSPVAFGFGTEYLVRFEEQGLGLQWSNIGNSPTEGDEFSFLLSMQMMLLDAAVYGLLAWYLDQVFPGDYGTPLPWYFLLQESYWLGGEGCSTREERALEKTEPLTEETEDPEHPEGIHDSFFEREHPGWVPGVCVKNLVKIFEPCGRPAVDRLNITFYENQITAFLGHNGAGKTTTLSILTGLLPPTSGTVLVGGRDIETSLDAVRQSLGMCPQHNILFHHLTVAEHMLFYAQLKGKSQEEAQLEMEAMLEDTGLHHKRNEEAQDLSGGMQRKLSVAIAFVGDAKVVILDEPTSGVDPYSRRSIWDLLLKYRSGRTIIMSTHHMDEADLLGDRIAIIAQGRLYCSGTPLFLKNCFGTGLYLTLVRKMKNIQSQRKGSEGTCSCSSKGFSTTCPAHVDDLTPEQVLDGDVNELMDVVLHHVPEAKLVECIGQELIFLLPNKNFKHRAYASLFRELEETLADLGLSSFGISDTPLEEIFLKVTEDSDSGPLFAGGAQQKRENVNPRHPCLGPREKAGQTPQDSNVCSPGAPAAHPEGQPPPEPECPGPQLNTG
notes: Expressed in HEK293 cells from a codon-optimized CDS; tested in cell lysate; also called N1347; not shown: hemagglutinin (HA) tag linked to the C-terminus
B2: binds.
